# Reference: US8518892B2, “Methods to treat symptoms of pathophysiology related to body mass” (Board of Supervisors of Louisiana State University and …, priority 2005, dated 2013)
# Experiments:
# [1] = test system: diet induced obese (DIO) C57BL/6J mice; assay: Enho 1 ip for 3 days in diet induced obese C57BL/6J mice (Examples 19-21); type: in vivo, mouse
# Description: (§1) The effect of Enho-1 upon weight loss was tested over the course of 3 days using diet induced obese (DIO) C57BL/6J mice (Jackson Laboratories, Bar Harbor, Me.). The mice were fed Research Diets 12492 (60% kJ/fat) for 12 weeks, resulting in obesity and moderate hyperglycemia in the animals. The mice were approximately 20-22 weeks of age and 30-50 g in weight at the start of the experiment. Fasting blood glucose was determined to be approximately 170-220 mg/dL. Six control mice received vehicle only while six test mice each received doses of either 90 nmol/kg/d, 900 nmol/kg/d or 9000 nmol/kg/d. The injections were given as 3 ip injections at 0600, 1400 and 2000 h on days 1 and 2; over the 3 day period, the mice received a total of 7 injections. All animals were euthanized 5 hours after the last injection given the morning of the third day. Food was removed after the final injection.
# as §1, with “insulin and glucose” for “weight loss”
# The HOMA-IR for each treatment was calculated using the following formula: ((glucose mg/dL÷18)×(insulin ng/ml×25.05))÷22.5
# as §1, with “liver weight, liver lipid content and liver TG” for “weight loss”
# [2] = test system: obese (ob/ob) mice; assay: Enho 1 ip for 8 days in obese (ob/ob) mice, serum lipids (Example 22); type: in vivo, mouse
# Description: The effect of Enho-1 upon liver serum lipid content was tested over the course of 8 days using obese (ob/ob) mice. The mice were fed Research Diets 12450 and were approximately 9-10 weeks of age at the start of the experiment. Control mice received vehicle only while test mice each received doses of either 90 nmol/kg/d, 900 nmol/kg/d or 9000 nmol/kg/d. The injections were given as 3 ip injections at 0800, 1200 and 1600 h for 7 days. On day 8, the mice were given the 0800 h injection and were sacrificed 1-3 h later, at which time blood samples were taken.
# Blood glucose levels were measured using an Accu-Chek glucometer. Insulin levels were measured by ELISA (Mercodia Mouse Insulin ELISA, ALPCO) while triglycerides were measured using a Triglyceride L-Type TG H kit (Wako Diagnostics).
# [3] = 90 nmol/kg/d ip, listed as Enho-1
# [4] = 900 nmol/kg/d ip, listed as Enho-1
# [5] = 9000 nmol/kg/d ip, listed as Enho-1
molecule,measurement,setting,value
"Enho 1: human Enho 1, a 76 amino acid peptide having the sequence SEQ ID NO: 14 (peptide, listed as Homo sapiens) MGAAISQGALIAIVCNGLVGFLLLLLWVILCWACHSRSADVDSLSESSPNSSPGPCPEKAPPPQKPSHEGSYLLQP",Blood glucose,[1]; 90 nmol/kg/d ip,204 mg/dL
same,Delta body weight,[1]; 90 nmol/kg/d ip,2.9%
same,HOMA-IR,[1]; 90 nmol/kg/d ip,50
same,HOMA-IR decrease as compared to the control group,[1]; 90 nmol/kg/d ip,15%
same,Insulin,[1]; 90 nmol/kg/d ip,3.8 ng/mL
same,Liver TG,[1]; 90 nmol/kg/d ip,57 mg/g
same,Liver TG total,[1]; 90 nmol/kg/d ip,86 mg/g
same,Liver lipid,[1]; 90 nmol/kg/d ip,126 mg/g
same,Liver lipid total,[1]; 90 nmol/kg/d ip,188 mg/g
same,Liver weight,[1]; 90 nmol/kg/d ip,1.5 grams
same,Liver weight % body weight,[1]; 90 nmol/kg/d ip,3.6%
same,Weight (pre-treatment),[1]; 90 nmol/kg/d ip,42.9 g
same,Weight (termination),[1]; 90 nmol/kg/d ip,41.7 g
same,Blood glucose,[1]; [3],204 ± 7 mg/dL
same,HOMA-IR,[1]; [3],50 ± 5
same,HOMA-IR decrease as compared to the control group,[1]; [3],(↓ 15%)
same,Insulin,[1]; [3],3.8 ± 0.4 ng/mL
same,Liver TG,[1]; [3],57 ± 8 mg/g
same,Liver TG total,[1]; [3],86 ± 14 mg/g
same,Liver lipid,[1]; [3],126 ± 8 mg/g
same,Liver lipid total,[1]; [3],188 ± 13 mg/g
same,Liver weight,[1]; [3],1.5 ± 0.0 grams
same,Liver weight % body weight,[1]; [3],3.6 ± 0.1%
same,Weight (pre-treatment),[1]; [3],42.9 ± 1.2 g
same,Weight (termination),[1]; [3],41.7 ± 0.9 g
same,Delta body weight,[1]; 900 nmol/kg/d ip,3.5%
same,HOMA-IR,[1]; 900 nmol/kg/d ip,42
same,Insulin,[1]; 900 nmol/kg/d ip,4.2 ng/mL
same,Liver TG,[1]; 900 nmol/kg/d ip,48 mg/g
same,Liver TG total,[1]; 900 nmol/kg/d ip,66 mg/g
same,Liver lipid,[1]; 900 nmol/kg/d ip,137 mg/g
same,Liver lipid total,[1]; 900 nmol/kg/d ip,226 mg/g
same,Liver weight,[1]; 900 nmol/kg/d ip,1.5 grams
same,Liver weight % body weight,[1]; 900 nmol/kg/d ip,3.5%
same,Weight (pre-treatment),[1]; 900 nmol/kg/d ip,42.8 g
same,Weight (termination),[1]; 900 nmol/kg/d ip,41.3 g
same,blood glucose levels decrease,[1]; 900 nmol/kg/d ip,approximately 15%
same,insulin levels reduction,[1]; 900 nmol/kg/d ip,about 14%
same,Blood glucose,"[1]; 900 nmol/kg/d ip, P < 0.05 vs 90",166 mg/dL
same,Blood glucose,"[1]; 900 nmol/kg/d ip, P < 0.05 vs 90, listed as Enho-1",166 ± 13 mg/dL
same,HOMA-IR,[1]; [4],42 ± 3
same,Insulin,[1]; [4],4.2 ± 0.5 ng/mL
same,Liver TG,[1]; [4],48 ± 12 mg/g
same,Liver TG total,[1]; [4],66 ± 14 mg/g
same,Liver lipid,[1]; [4],137 ± 34 mg/g
same,Liver lipid total,[1]; [4],226 ± 77 mg/g
same,Liver weight,[1]; [4],1.5 ± 0.2 grams
same,Liver weight % body weight,[1]; [4],3.5 ± 0.2%
same,Weight (pre-treatment),[1]; [4],42.8 ± 2.9 g
same,Weight (termination),[1]; [4],41.3 ± 2.7 g
same,HOMA-IR decrease as compared to the control group,"[1]; 900 nmol/kg/d ip, p<0.02",29%
same,HOMA-IR decrease as compared to the control group,"[1]; 900 nmol/kg/d ip, p<0.02, listed as Enho-1",(↓ 29%)
same,Blood glucose,[1]; 9000 nmol/kg/d ip,198 mg/dL
same,Delta body weight,[1]; 9000 nmol/kg/d ip,4.1%
same,HOMA-IR,[1]; 9000 nmol/kg/d ip,52
same,HOMA-IR decrease as compared to the control group,[1]; 9000 nmol/kg/d ip,12%
same,Insulin,[1]; 9000 nmol/kg/d ip,4.2 ng/mL
same,Liver TG,[1]; 9000 nmol/kg/d ip,47 mg/g
same,Liver TG total,[1]; 9000 nmol/kg/d ip,63 mg/g
same,Liver lipid,[1]; 9000 nmol/kg/d ip,139 mg/g
same,Liver lipid total,[1]; 9000 nmol/kg/d ip,230 mg/g
same,Liver weight,[1]; 9000 nmol/kg/d ip,1.4 grams
same,Liver weight % body weight,[1]; 9000 nmol/kg/d ip,3.4%
same,Weight (pre-treatment),[1]; 9000 nmol/kg/d ip,42.7 g
same,Weight (termination),[1]; 9000 nmol/kg/d ip,40.9 g
same,liver TG reduction as compared to the control group,[1]; 9000 nmol/kg/d ip,18-19%
same,Blood glucose,[1]; [5],198 ± 9 mg/dL
same,HOMA-IR,[1]; [5],52 ± 4
same,HOMA-IR decrease as compared to the control group,[1]; [5],(↓ 12%)
same,Insulin,[1]; [5],4.2 ± 0.3 ng/mL
same,Liver TG,[1]; [5],47 ± 9 mg/g
same,Liver TG total,[1]; [5],63 ± 10 mg/g
same,Liver lipid,[1]; [5],139 ± 42 mg/g
same,Liver lipid total,[1]; [5],230 ± 96 mg/g
same,Liver weight,[1]; [5],1.4 ± 0.2 grams
same,Liver weight % body weight,[1]; [5],3.4 ± 0.3%
same,Weight (pre-treatment),[1]; [5],42.7 ± 1.6 g
same,Weight (termination),[1]; [5],40.9 ± 1.6 g
same,serum TG reduction as compared to the control group,"[1]; 9000 nmol/kg/d ip, p<0.05, 1-tailed t-test",20%
same,TG (blood triglyceride level),[2]; 90 nmol/kg/d ip,19.4 mg/dL
same,TG decrease in comparison with the control,[2]; 90 nmol/kg/d ip,34%
same,TG (blood triglyceride level),[2]; [3],19.4 ± 2.2 mg/dL
same,TG decrease in comparison with the control,[2]; [3],(↓ 34%)
same,TG (blood triglyceride level),[2]; 900 nmol/kg/d ip,18.4 mg/dL
same,TG decrease in comparison with the control,[2]; 900 nmol/kg/d ip,38%
same,TG (blood triglyceride level),[2]; [4],18.4 ± 2.3 mg/dL
same,TG decrease in comparison with the control,[2]; [4],(↓ 38%)
same,TG (blood triglyceride level),[2]; 9000 nmol/kg/d ip,22.0 mg/dL
same,TG decrease in comparison with the control,[2]; 9000 nmol/kg/d ip,26%
same,TG (blood triglyceride level),[2]; [5],22.0 ± 2.2 mg/dL
same,TG decrease in comparison with the control,[2]; [5],(↓ 26%)
